Test results from publication PMC12220430.
Like-named read-outs stand apart in the source and are kept apart here.

B1: ST2 (dsDNA)
DNA 1: CTTCTCATTGGCCCTTGCTGTGGCCTGCTC
DNA 2: GAGCAGGCCACAGCAAGGGCCAATGAGAAG
B2: ST (dsDNA)
DNA 1: ACGAAAACGATCCACCGCCTTCTCATTGGCCCTTGCTGTGGCCTGCT
DNA 2: AGCAGGCCACAGCAAGGGCCAATGAGAAGGCGGTGGATCGTTTTCGT
B3: ST2a (dsDNA)
DNA 1: CTTCTCATTGGCCCTTGCTAAAACCTGCTC
DNA 2: GAGCAGGTTTTAGCAAGGGCCAATGAGAAG
B4: ST2b (dsDNA)
DNA 1: CTTCTCAAAAACCCTTGCTGTGGCCTGCTC
DNA 2: GAGCAGGCCACAGCAAGGGTTTTTGAGAAG
B5: R2 (dsDNA)
DNA 1: TCAACCATGGCCAATTTGGGGAAGGTGGACTGATTT
DNA 2: AAATCAGTCCACCTTCCCCAAATTGGCCATGGTTGA
B6: R1 (dsDNA)
DNA 1: TGGGGTGGTGGTAGTGGACTGCCACATGACACCCTGTGGCTTCAGAA
DNA 2: TTCTGAAGCCACAGGGTGTCATGTGGCAGTCCACTACCACCACCCCA

Columns and labels:
[1] = molecular target: T1, rPdxR (Sco1417) (Streptomyces coelicolor A3(2) M145) (UniProt Q9RKX6); assay: competition
T1 sequence: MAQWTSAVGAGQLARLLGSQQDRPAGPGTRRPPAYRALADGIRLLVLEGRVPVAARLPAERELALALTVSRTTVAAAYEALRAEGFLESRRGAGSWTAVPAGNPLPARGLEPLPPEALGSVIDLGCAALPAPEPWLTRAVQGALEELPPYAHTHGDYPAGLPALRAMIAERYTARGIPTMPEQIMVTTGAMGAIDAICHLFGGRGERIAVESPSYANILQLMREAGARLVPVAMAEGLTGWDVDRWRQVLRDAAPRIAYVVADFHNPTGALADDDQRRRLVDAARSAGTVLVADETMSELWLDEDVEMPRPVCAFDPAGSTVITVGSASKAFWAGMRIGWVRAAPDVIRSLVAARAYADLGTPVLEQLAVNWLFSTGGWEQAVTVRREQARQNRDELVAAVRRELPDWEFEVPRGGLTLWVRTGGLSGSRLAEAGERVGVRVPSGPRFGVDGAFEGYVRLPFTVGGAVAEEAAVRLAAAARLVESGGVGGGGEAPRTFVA

rPdxR (Sco1417) [2] = molecular target: T2, rPdxR (Sco1417) (Streptomyces coelicolor A3(2) M145, UniProt Q9RKX6); assay: EMSA
T2 sequence: T1 sequence

rPdxR (Sco1417) [3] = molecular target: T2, rPdxR (Sco1417); assay: EMSA; remark: listed apart in the source

| Molecule | binding result (rPdxR (Sco1417) [2]) | also measured |
| --- | --- | --- |
| TGCTGGACACGGGTACCTCACTGGGGAGAAGGGGGGTTGTGCAGCAACGAGGAAACGTGAGGTGAGCAGGCCACAGCAAGGGCCAATGAGAAGGCGGTGGATCGTTTTCGTCCCCCGGGCGCTACGCCGCCCGCTCCACCAGGGCGGCCGGCGACTCGTCGTCCATCTCGAAGGCCAGCGGGAAGGGCGCGTGCCCGGCGAGGCGGAACCAGCGGACCTTGCGGTGCTCGCGCAGCCTGCGGGCCGCCCCCACCGCGTCGTTGTGGAAGCGGCGG (double strand) [pdxSTp] |  | binding [1]: binds |
| ACTGCGCCATGGAAATCAGTCCACCTTCCCCAAATTGGCCATGGTTGACTCTTCTTCTGAAGCCACAGGGTGTCATGTGGCAGTCCACTACCACCACCCCAGGGGGCACTTCTTGTCCAGGCAGTCCAGACAGTCGAGGCAATCCGGGCAGTCCGGATGGTCCGGGCGACTCGCGCGGCGGCTGACGCAGCTCTACGGCGGTCTCGTCCTGTACGGAGCGAGTTCGGCGCTGCTGGTCAGGTCCGGGCTCGGCCTCGAACCGTGGAACGTGCTGCACCAG (double strand) [pdxRp] |  | binding [1]: binds |
| B1 | binds |  |
| B2 | binds |  |
| B3 |  | binding result (rPdxR (Sco1417) [3]): no binding |
| B4 |  | binding result (rPdxR (Sco1417) [3]): no binding |
| B5 | binds |  |
| B6 | binds |  |
